B1: VvRsbR, recombinant, untagged, co-expressed with VvRsbS (natural protein, Vibrio vulnificus CMCP6, UniProt A0A3Q0KX46 1-306, looked up)
chain: MSLGSVLNKVEDADELLKLHDLTEADLALIRKFGQIMVPKLDEYVKHFYDWLRNTPEYEQYFGDAQKLQRVQDSQVRYWKTFFDARIDSAYLKERRDVGEIHARVGLPLPTYFAGMNISMVIFTKRMYDGSLYSDEYSSLVTAFTKLLHLDTTIVVDTYSRLINKRISEQSEALLAMSTPVTMIWQDILMLPIVGIIDSKRAQDIMSAVLNKISENRAKIFIMDISGVAVVDTAVANHFIKITKATKLMGCDCLVSGVSPSIARTMVQLGINVGEVRTNATLRDALENAFKIVGLTVSGLKHFPHE
notes: VvRsbR of Vibrio vulnificus CMCP6, locus VV2_0073; full-length gene amplified from genomic DNA, expressed untagged from pJPF012; Carries a heme in its N-terminal globin coupled sensor domain; In PDB 7O01 the linker helix was modelled as poly-alanine; also called VvRsbR2 (dimer)
B2: VvRsbS, recombinant, untagged, co-expressed with VvRsbR (natural protein, Vibrio vulnificus CMCP6, UniProt A0A3Q0KX63 1-117, looked up)
chain: MTMQSAISISKLQDVLIASVQVDLTESTLRDFSLDLLDAVKSTRAKGVMIELSGVKTLDGESMHRLLDVVKTVEVMGRRCLLVGLRPGVVIGLMDIGIDLASTLCVADLEQGFLYLE
notes: VvRsbS of Vibrio vulnificus CMCP6, locus VV2_0074; STAS domain made up of 115 residues; also called VvRsbS2 (dimer)

How the values were obtained:
[1] = molecular target: the molecule itself; assay: cryo-EM structure; purified, oxidized VvRsbR:VvRsbS complex (co-expressed in E. coli) at 0.3 mg/mL; single particle reconstructions in C1 and D2; homology models fitted into the map
[2] = molecular target: B2; assay: quantification of fluorescently stained SDS-PAGE bands of the purified complex; purified VvRsbR:VvRsbS complex separated by SDS PAGE, stained with Krypton, Typhoon scanner, bands quantified with ImageQuant; details: both partners purified

Row | Binder | stoichiometry N [1] | stoichiometry N [2]
1 | B1 | 2 | 2.4 VvRsbR:VvRsbS
2 | B2 | 2 | –

Reference: article PMC9237108, “The Vibrio vulnificus stressosome is an oxygen-sensor involved in regulating iron metabolism” (Communications Biology, 2022)
